Entries after “also recorded” stand apart in the source; their conditions may differ.

The values below come from patent US20060160761A1, “Regulation of vascular endothelium using BMX tyrosine kinase” (priority 1994, published 2006).

One series has as its system endogenous Bmx. The series is described as follows: Kinase activity of endogenous Bmx immunoprecipitated from stimulated HUVECs, with or without PI-3 kinase inhibitors. The format is cell-based, human. As to conditions: HUVECs starved overnight; hVEGF and VEGF-B 60 ng/ml for 5 min, IL-3 200 ng/ml for 30 min. The source says: The polyclonal antibody (Ab) against human Bmx was produced against the Tec Homology (TH) domain by Dr. Toshio Suda (amino acids 151-169, NH2-[…]—COOH (SEQ. ID. NO.: 4)). The monoclonal anti-hemagglutinin (HA)-epitope Ab, phosphotyrosine Ab, and anti-CD31 Ab were from Berkeley Antibody Company (Richmond, Calif.), from Transduction Laboratories and from DAKO, respectively. GCSF growth factor was a kind gift from Dr. Riitta Alitalo, while VEGF was obtained from R&D Systems, Minneapolis, Minn. VEGF-B was produced in Drosophila cells by Terhi Karpanen. Mouse IL-3 was obtained from Calbiochem Novabiochem. Phosphatidyl inositol-3 kinase inhibitors Wortmannin and LY294002, were both from Sigma. For inhibition of PI3K activity, 100 nM for 30 min of Wortmannin and 100 μM of LY294002 for 30 min, were used.
Cell culture and transfections. 293T cells were grown in Dulbecco's Modified Eagle's Medium (DMEM), Human umbilical vein endothelial cells (HUVECs) were maintained in Hy-clone 199 medium. […]
(§1) In vitro substrate immunocomplex kinase assay was performed as follows. […] The filters were fixed and washed one time in 10% TCA 8% sodium pyrophosphate, 3 times in 5% TCA and 2 times in ethanol after which radioactivity was measured using Pharmacia Wallac 1410 Liquid Scintillation Counter. […] The gel was dried and Bmx autokinase activity was detected by exposure on film.

For another series, the system named is Bmx. The series can be described thus: In vitro substrate immunocomplex kinase assay of Bmx immunoprecipitated from stimulated BmxHA expressing 32Dcl3 cells. The series is classed as cell-based, mouse. Conditions: BmxHA expressing 32Dcl3 pools, starved 14 hours in IL-3 and serum free media; IL-3 200 ng/ml for 30 min, hGCSF 100 ng/ml for 5 min; vs unstimulated. On the procedure:
Cell culture and transfections. 293T cells were grown in Dulbecco's Modified Eagle's Medium (DMEM), Human umbilical vein endothelial cells (HUVECs) were maintained in Hy-clone 199 medium. […] All media were supplemented with 10% fetal calf serum, glutamine and antibiotics, the Hy-clone 199 medium additionally with endothelial cell growth supplement-ECGS (Upstate Biotechnology). Where indicated, cells were stimulated with growth factors, hGCSF 100 ng/ml, hVEGF and VEGF-B 60 ng/ml, for 5 min or with mIL-3 or hIL-3, 200 ng/ml, for 30 min.
Transfections and generation of stable BmxHA and BmxHA K444R expressing pools (and clones). Transient co-transfections of293T cells were done using the Calcium Phosphate Transfection kit (GIBCO) according to manufacturer's instructions. The cells were transfected with Bmx-HA expression plasmid and the receptor plasmid or empty vector (PCI-Neo or pcDNAZ3.1) in the ration of 1:4. […]
as §1

As for VEGF, in the series on endogenous Bmx, the “endogenous Bmx kinase activity after stimulation” value is “increased endogenous Bmx activity; also recorded: activated”.

B1: GCSF: GCSF growth factor (granulocyte growth factor), gift from Dr. Riitta Alitalo (protein)
chain: TPLGPASSLPQSFLLKCLEQVRKIQGDGAALQEKLCATYKLCHPEELVLLGHSLGIPWAPLSSCPSQALQLAGCLSQLHSGLFLYQGLLQALEGISPELGPTLDTLQLDVADFATTIWQQMEELGMAPALQPTQGAMPAFASAFQRRAGGVLVASHLQSFLEVSYRVLRHLAQP
For the molecule B1, in the series on Bmx, the “increase of Bmx kinase activity” value is recorded as “around 1.7 fold”.

B2: VEGF-B: VEGF-B produced in Drosophila cells; ligand of Flt1 receptor (protein, UniProt P49765 22-207, looked up)
Vascular endothelial growth …: PVSQPDAPGHQRKVVSWIDVYTRATCQPREVVVPLTVELMGTVAKQLVPSCVTVQRCGGCCPDDGLECVPTGQHQVRMQILMIRYPSSQLGEMSLEEHSQCECRPKKKDSAVKPDRAATPHHRPQPRSVPGWDSAPGAPSPADITHPTPAPGPSAHAAPSTTSALTPGPAAAAADAAASSVAKGGA
For B2, in the series with endogenous Bmx, the “endogenous Bmx kinase activity after stimulation” value is reported as “increased endogenous Bmx activity; also recorded: activated”.
